Molecular target: recombinant SARS-CoV-2 spike RBD, WH-1 (Sino Biological 40592-V08B) (SARS-CoV-2 (wild type, WH-1)) (UniProt P0DTC2)
Assay: SPR (Biacore T200), minibinder immobilised, monomeric RBD as analyte

| Substance | Kd [pM] | fold higher affinity than AHB2 [fold] |
| --- | --- | --- |
| recombinant minibinder LCB1 with N- and C-terminal Ser/Gly extensions and C-terminal Cys (designed binder) | 5 | 10 |
| recombinant minibinder AHB2 with N- and C-terminal Ser/Gly extensions and C-terminal Cys (designed binder) | 50 |  |

Source: patent EP4556028A1
